The source of these data is patent publication US20190307687A1.

In the experiment the target is αvβ3 integrin on TNF-α-treated bovine aortic endothelial cells (BAEC) (bovine) (UniProt P80746). In words: attachment under flow in a microfluidic device coated with TNF-α-treated BAEC cells; reference RGD-targeted nanospheres.

Square brackets hold non-standard residues; d marks the D form.

B1: RGD-NC nanoparticle (integrin-targeted nanochain of four iron oxide nanospheres carrying c(RGDfC) peptides on PEG) (peptide)
peptide: cyclo(RGD[dF]C)
modifications: not fully specified (residue 5); printed as cyclo (Arg-Gly-Asp-D-Phe-Cys); also: nanochain also tagged with VivoTag 680
As to B1, the fold higher attachment compared to RGD-targeted nanospheres (after 5 min) turned out to be 9.5 fold and the fold higher attachment compared to RGD-targeted nanospheres (after 20 min) was found to be 2.9 fold.
